Assay results: the supplement of paper PMC12636428

Test system: Saccharomyces cerevisiae
Experiment: transcriptional activation domain activity (GFP:mCherry ratio, weighted mean of sorted bins, harmonized to initial dataset scale) (arbitrary fluorescence ratio units); higher = stronger transcriptional activation
Conditions: beta-estradiol 1 µM; induction time 4 h
Outline: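 For this assay, yeast diploids with a GFP reporter carried barcoded protein tiles at URA3, each fused to an estradiol-inducible synthetic transcription factor. Induction was a 1:5 dilution into SC with 1 uM beta-estradiol for 4 hours at 30 °C, followed by sorting into 8 bins by GFP:mCherry ratio and barcode sequencing. Tiles under 50 reads were dropped, and activation activity was calculated as the read-weighted mean of bin median fluorescence, averaged across barcodes and linearly mapped onto the initial dataset scale.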

Sequence | transcriptional activation domain activity
GDAEPSSKGGEDSSGGEGSADEEKPKAKPAKAKSKSSSSKEPVKKKAKKEKKD | 21400
EEREEEKEEEKEEKEQEKKKEEETRRRIRSRKRRGARRRETMRKTSQRGNRKK | 25200
RKSTSGKTEKADTEKPEKKKPANEGNTAAGTKGTGERKPAVKAGGGVKGRPSG | 17800
MWVLGRSWAVLSTFFLSLLRLFFCLLFLLGLDFWSGLLPFLCFFLLCSYCFSL | 56400
SEVKYFWSYYNHVCFLVIPIDDNGLSIFFSCFTGESVEIILSIICVAMTQVLT | 35200
MVCCAFFVVFFLIEIFIILFLCLPFFSFLFLLWEGRVGGYALWLLSVQVCVRT | 55800
AKQGEDDAEKSKRGRKRKESETLEANGEEAGDDAEPAAKKAKPASKPASKAAA | 30100
RLFGRGQWTLGRVIFFVFFYFNVAPLMLGVSMVCWFMVFWIPMGRVTLILFYH | 85300
AWAVQTKVYLNYLWHTTNKFTTGFKVIYIQCHPDFVTWEQMKIMAMFLCCLCF | 55800
VSASVVYLFFIFIFSLSYPILSCPYLLTHSLTLSILPPFSFPLPFFFLSFFLP | 58800
DPFVEQNNDITTALLNNELFQGPSLSDEVTDWFGASEDIGLEFVEPWTELIEQ | 144000
NNNSRSTEDSEDDLAIVGHGTGVERLGGLDALILRQRLLALLIRVAEALPEDF | 15200
HKLVVQVLQSQLLILKILDLCVTFHWHSHRERYLGIGYPLNGSASSLSSNAPY | 41400
MFFPLVLSKMLICVSFLPVTLLISYLSFFFLFFTGLGLGATAFFFFTFLLYFS | 42100
PHGLLLPLLAHLFSLVLKISFLFCFEYKLAIFIFALVWQSLVVASLTCGFVFV | 55700
QGRTLDVTRAVSRDRAEKLRETGERTRERKDKRNLYLMREGVIFVSTPSASTL | 39700
TNNEFEGESDDFVHSPYLNSEADFSQILSSAPPVHHDPNETHQENQDIIDRFA | 66800

Sequence | transcriptional activation domain activity
PSFLWWLPLVLFVMATGIFVILSFLLFLIIHGLYYIVPLWQKCGSIHVCVSVL | 52700
KARPRQEGGQRQESGKKRKRDEDEGGDGQEGGEGGRKRRRKRKGAGGADDGVQ | 33400
MSYGKRDEDAELGLVKVDRTQVFQEARLFNSSPIQPRKCRILLTKIALLLYTG | 24100
PFLLLLPVSLFSFLFFHFFYLFVSFSFFLFCYFFYFLHFFLTFLIFLLFLTFL | 34900
LLYALMNFSRIFSSGHSFGRKIIMFFEFVYLLLNFLFGFVSLGHFYFAFHFLI | 37000
GAPHHNQFLDLNLGLEVYKETGRRVQFLVAAKSMQRKFVGLCCRLIHAIPVVR | 67400
TAPFPILEDQCPALNLDRSNNDLLLQNNISFPKGSDLQAIQLTPISGDYSTYV | 92600
ASTKGRADVRGRSGKAAPQKGRGKARVGSKRAPHFRGGGIAFGPRPRDFSTEL | 28300
LHQSGITHVYYLVENYSKQILLSHFLLNDISFRGWIMLLRNMSFRSIRHCQST | 54800
AYAVMVVIQSLFLCLFGMAFQFSFFLNANFVVVYSIFVLYGWAMICFALFLST | 46800
NIKTFLYTCITHIYINFILCLCACITHYQVYYHYYVNIFTFIFVWLCSFFLFL | 45200
LPLYNFVRQHLCVFLDRYEHMLTRFLTLGNIMVVSSAVRRGAYWHLLETCQHT | 50200
SADTQKEEGKRAKVEKNRRGKRDGHKAGRFSGGRRKERGEASTQAGAAAAGAN | 37500
MRRVARSTKGGKVRSLAALVVVGNGNGVGGFGEGRAVDSAQAVAKATAAATKN | 32500
NVRYITNLSFTSDSVYKFLLFYPLFLIMTEPIIQLLGIYLAYIYGLIYLILTS | 55800
AAFSGEGDPWPGVAREIDENGENVGLAASRPAPAFLRVLTAVRVRVRIAFAFV | 54500
STARICQMYHWTGNVAIWTHCAILMHPHTIVLWHIWRWDSSWSQASYYFIFWI | 37000
